Source: the DeepSol protein solubility set

assay: soluble on expression in E. coli; label from the status in PepcDB or PDB records

Sequence | soluble on expression in E. coli
MRVYVGVDTGGTFTDFVYWDGKEWRVLKIPSTPSNPAEAVLKGLEKLRRGKALDVVHGSTVATNALLERKGAKTALITNKGFEDVIEIGRQNRERLYDLYYRKPKPLVPRELRFGLNCRINAKGEVLKPINREELKEILKALKEKGVESVAVCMLHSYANPEHEKEVEEELKKNLSVFVSLSSEILPEFREYERCSTTVINAYVSPKMSKYLYYLKDRLREGDLFRVMQSNGGLISPETASKEAVRTILSGPAGGVIGALHLGKLAGFEKLITFDMGGTSTDVSLIYGTPNITTESKIDGLPVKVPMIDINTVGAGGGSIAYVDEGGALRVGPQSAGAQPGPICYGRGGKEITVTDANLFLGRLVPEHFLGGEMKLYPELLEEPFKEMAKKIGLAPTELAEGIIKVANSSMERAIRKVSVERGYNPEEFALFSFGGAGGLHAVLLAKSLNIPKVIIPRNPGLLSAVGMLFADIVKDKVTTVMLKEEEAKPETLEKLFLLMEEKVLSEMEGEGFPPEKVFVERFLDVRYKGQSYEITIPFGENFKETFEKEHERLYGYAHRGRKIEIVNLRIKATGIKEKPPLKEFKERGDKYPKDAILGEREVVFEGRLETFKVLDREKLVYGNVIDFPAIVVEYSSTTLIPPYATAEVDRYGNLIITLL | not soluble
MAVAPTAREENVYMAKLAEQAERYEEMVEFMEKVSNSLGSEELTVEERNLLSVAYKNVIGARRASWRIISSIEQKEESRGNEEHVNSIREYRSKIENELSKICDGILKLLDAKLIPSAASGDSKVFYLKMKGDYHRYLAEFKTGAERKEAAESTLTAYKAAQDIATTELAPTHPIRLGLALNFSVFYYEILNSPDRACNLAKQAFDEAIAELDTLGEESYKDSTLIMQLLRDNLTLWTSDMQDDGADEIKEDPKPDEAKN | soluble
MSFVPSEVRLDHTFLEWDKEWIFQRLPKTEIQIPREFEPDIETDAIPTIARQPADPNTTWNETGLDQIQMGPTINSTKN | not soluble
MGSDKIHHHHHHMTTAQQTENKGQQTRTVAELVEDIKALTTEIQELYCLDQIPWVLGVSWGKDSSTVLQLVWNAIAALPPEKRTKTVYVITTDTQVENPVVSAWVRKSLQNLKIAAKEQGMPIDPHLLQPVIQDTFWVNLIGKGYPAPRNQFRWCTPRLKINPANQFIREIVRANGETILVLGTRKAESSKRAATMKKHQVDRVRDRLSPNASLPNSLIYTPIEDWSNNDVWIYLNQWNNPWGQSNKELFTMYRGATADNECPLVVDTSTPSCGDSRFGCWVCTLVSKDKSMEAMIQNDEEKEWMQPLLDIRNELDIKDDRDKRDFRRIWGEVQLFERNKDGKISVDPIPGPYTKYWREYWLKRLLEAQIKTRRTAPENMRDITLITLEEMSEIRRIWLEDKHEFDDSLPRIYQEVTGEEFQDPRPGADYSLLGRDEWIVLEEICEGDAMHLELMAKLLDTERQYRKKTRRVGIYETLEKCFNTSSRSPEDAIKNARLKRELSEAVSQGDVAKVKQMTLGDVAAINEVDEGQSESDEEVTWASMKFKKENSEE | not soluble
MSDALTLTAAKKNARNRIRAARLARSTADLHADNAAILNQLTALIRTINATRAAAYMPEVTEPGGVDFADNLTGILSELWIPKSLPNRQLVWGHYSGGDSVERGTFGILEPTTPSRSSDILHDVDLIIVPALGITPSGRRLGQGAGYYDRALAGVATPTVAILFDSEVNTTIPFEPHDATCDWIITPEGTKQVT | not soluble
MAHHHHHHMNQVIRSRTDWKERVVLRLAWITASRWSEIAALTPNNLKLKTDGTLILYWPVAPKTARTDPHRASRFVRIRGQDAFDIIKLCRTLQHIEKLTNLTTARVERALAPWNATAHSIRRGALRHAAQIVEAYNLNPHVISQLAKHVDPFDLPQNTVRYLGNCTTMLTQVLSLVALM | not soluble
MGSDKIHHHHHHMSRYLEMLSLFGVAGAHPGGLAFSKAVLQKAAPSPDQPILDAGCGTGQTAAYLGHLLYPVTVVDKDPIMLEKAKKRFANEGLAIPAYQAELEHLPFSSESFSCVLSESVLSFSRLTSSLQEISRVLKPSGMLIGIEAALKKPMPPAEKKQMMDFYGFTCLHEESEWHKLLRSYGFQKTEAMSLLPEDMEFEPTTEMDLSQTIDPIYYDTLQTHYQLMQLYSEYMGHCIFIAYK | not soluble
MSHLNYNHLYYFWMVCKQGSVTKAAEALFLTPQTVTGQIKALEDRLDGKLTKRNGRNIEPTELGQLIYKYADRMFGLSYEMLDIVNYSQQANVLFDVGVADALSKRLVSKVLSTTVPEDASIHLRCFESTHELLLEQLSQHKLDMILSDCPVDSSQNSGLFSKKLGECEMSFFCSKELKGVTFPEVLEKHKVLIPGSRTSMGRKVVQWCDQQGVTPNILGEFDDVALMKAFARENNAVFLAPSVYMNEADSDLSLHKIADVRDLKEEYYVIFAERMIQHPAVKSICEADFSHLFDF | not soluble
MYHGMNPSNGDGFLEQQQQQQQPQSPQRLLAVILWFQLALCFGPAQLTGGFDDLQVCADPGIPENGFRTPSGGVFFEGSVARFHCQDGFKLKGATKRLCLKHFNGTLGWIPSDNSICVQEDCRIPQIEDAEIHNKTYRHGEKLIITCHEGFKIRYPDLHNMVSLCRDDGTWNNLPICQGCLRPLASSNGYVNISELQTSFPVGTVISYRCFPGFKLDGSAYLECLQNLIWSSSPPRCLALEGGRPEHLFPVLYFPHIRLAAAVLYFCPVLKSSPTPAPTCSSTSTTTSLF | soluble
MAGDPMKKLVTATTLTAGIGTALVGQAHHADAAENYTNYNNYNYNTTQTTTTTTTTTTTSSISHSGNLYTAGQCTWYVYDKVGGEIGSTWGNANNWAAAAQGAGFTVNHTPSKGAILQSSEGPFGHVAYVESVNSDGSVTISEMNYSGGPFSVSSRTISASEAGNYNYIHILEHHHHHH | not soluble
MATSFRYGHGGSYKSACAVWFDLLPALREGRICITNIHGMQPLEVIEQRLGEKFPDTARLIRISSRNPEGFELWKYFFCWAPIGAFILIDECQQIFSVNAGFKMANIHKRPFTDFEPHLPEGFSELFHSRWLTIDTSSLDNGEIDDCQRTRFDEQGRIIYPENFNNAFMEHRHYNWDIVLLTPDFAQIPKELKGVAELAKQHKGKDGIFFSNRKPRILEHDPTRTVTKPSKDDVVYNLKVPLDVHLLYASTVTGQ | not soluble
MGSDKIHHHHHHMCRLSLLKSSHLFKEQLLAASYSIQCVSQIAILGAPLWNALMAGANRQDQNGPANPFCRYEYLHALELSGCVGEQTGWRPMHLVVSEAGQIGENNQASAQGGDRQIDPSKVLAVMPLYLKGHSYGEYVFDWAWAQAYERHGLEYYPKLVNAIPFTPVTGSRIGFRVDLSEAQKAGLIGKIGEHLDLLTKACSASSWHSLFLLESERQPLVSKGHLQRLGTQFHWFNRDYQSFDDFLSRLTSRRRKSILKERRAITKAGLKFHFIDGAEITEDELTHFVHCYQRTYYKRSGHQGYLNAAFFSAVVKNMADKVRLLMVERPQANKLEAQAGSDARSEVGSAQEIEPIAAALYFVGGDCLYGRYWGALEEIEGLHFETCYYQGIDYAIAQRLKKFDAGAQGEHKVLRGFEPIPTYSIHEILHGDFRRAIADFIEQEARAVKIYMNELEAILPFKREGD | not soluble
MDDKKDNRHLSKPAYREECTGDTERSTTAYMDILEDVSTGSTSKLPLEAKFVKISNNISEKENLPKEKEIGGVKGLEPTRYGDWQHKGKVTDF | soluble
MALKNNTLWTGPKPEANCIIEYGKQNPDSKLTLILVKNGGIVNGYVTLMGASDYVNTLFKNKNVSINVELYFDATGHILPDSSSLKTDLELKYKQTADFSARGFMPSTTAYPFVLPNAGTHNENYIFGQCYYKASDGALFPLEVTVMLNKRLPDSRTSYVMTFLWSLNAGLAPETTQATLITSPFTFSYIREDD | soluble
MDKKELFDALDDFSQQLLVTLADVEAIKKNLKSLVEENTALRLENSKLRERLGEVEADAPVKAKHVRESVRRIYRDGFHVCNDFYGQRREQDEECMFCDELLYRE | not soluble
GSHMGDKEKETLFKDYLNLIVVKMTEWIGNLEKAEFDVFLERSTPPHSDSDGLLFLDGTKTCFQMFTQQVEVAAGTNQAKILVGVVERFSDLLTKRQKNWISKISEEIKKQINYNHKYDIDPESITPEDECPGGLVEYLIAVSNDQMKAADYAVAISSKYGKLVSKVYEKQITNHLEGTLDGFAEVAQCSSLGLITLMFDDLRKPYQEIFSKTWYMGSQAQQIADTLDEYLLDIKPQMNSVLFVNFIDNVIGETIIKFLTALSFEHSFKNKNNKFLEAMKRDFEIFYQLFVKVLDGNESKDTLITQNFTVMEFFMDLSCEPIDSILDIWQKYLEVYWDSRIDLLVGILKCRKDVSSSERKKIVQQATEMLHEYRRNMEANGVDREPTLMRRFVLEFEKQ | soluble
MSLILENEVIWDPERYVLGNYIQNKINDVFLKTIHSKLSGNILDIGCGDGHYTSLLAGKVKHGQILGIDSSEQMIMHANQQWARTGLSFEVHNIEEFHQPQSFDLVLSFWCLHWTNIHISFPNIFHLLKREGKLYAVMSSFSDHSILQTWKELAKQNLYRDLTKQYISPINEQYFYGVINLLNRLPFKRIKLDLKTCRVHLPHIDYYKNLLLTMPFIKRVPSEITDTLVEDMLKAFQTICDRKYGGELYYETRPIFLEAIKEGHHHHHH | not soluble
MGSDKIHHHHHHMEELLERVFSFSDVDKLIDFISYELQKPVILESADFFLLAYNSYYINHFDSANQQTIFSKKCPVQIFERFLKDGIIEKLKTEPEPFRVNKIESIGLNQRVVVSAKHKGEVMGYIWIQELDQNLTDEELDFLYETSFHVGKIIYKTNKLKQEKEEKAEDLIKRAIYQQFTSEKELRREAERINTVLPSMFSVVILHAANGDGEAVEDLKENIRSYLNLRDKVSHVLTIESNIVIVVASFSQKSSVSSAASEFINKLLTHFHFQKIPTPIYIGIGNEYNHLLKLGKSYTEALEVIKAAEITGNQENIPYEYAKLGIYRYLESIEQKNEFLEYENKDLALLKAKDEESSTELLKTLEVYLLNNCKTKPAAEQLFIHQNTLNYRIKQITEMTSIDLSDFRTRCQLYLDLMLMKKK | not soluble
QKFIARNRAPRVQIEYDVEIYGAERKIQLPFVMGVLADLAGKSNTPQPEVGERKFLDVDIDNFDERMKSVAPRAAFQVANTLTGAGHLNVDITFESIDDFSPATVARKVGALNEMLEARTQLANLLTYMDGKTGAEELIGQVLQNPALLGALAAAPKPA | not soluble
GPKDNNKTLKPAIAEYIVKKAKQRIALQRWQDELNRRKNHKGMIFVENTVDLEGPPSDFYYINEYKPAPGISLVNEATFGCSCTDCFFQKCCPAEAGVLLAYNKNQQIKIPPGTPIYECNSRCQCGPDCPNRIVQKGTQYSLCIFRTSNGRGWGVKTLVKIKRMSFVMEYVGEVITSEEAERRGQFYDNKGITYLFDLDYESDEFTVDAARYGNVSHFVNHSCDPNLQVFNVFIDNLDTRLPRIALFSTRTINAGEELTFDYQMKGSGDISSDSIDHSPAKKRVRTVCKCGAVTCRGYLN | soluble
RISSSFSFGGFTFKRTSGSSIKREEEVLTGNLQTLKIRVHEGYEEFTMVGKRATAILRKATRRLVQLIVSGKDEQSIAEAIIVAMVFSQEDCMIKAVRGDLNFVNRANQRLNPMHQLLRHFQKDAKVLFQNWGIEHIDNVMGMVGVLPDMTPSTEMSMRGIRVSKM | soluble
